B1: TNF receptor-associated factor 2 (Homo sapiens), Q12933 (parent)
chain: MAAASVTPPGSLELLQPGFSKTLLGTKLEAKYLCSACRNVLRRPFQAQCGHRYCSFCLASILSSGPQNCAACVHEGIYEEGISILESSSAFPDNAARREVESLPAVCPSDGCTWKGTLKEYESCHEGRCPLMLTECPACKGLVRLGEKERHLEHECPERSLSCRHCRAPCCGADVKAHHEVCPKFPLTCDGCGKKKIPREKFQDHVKTCGKCRVPCRFHAIGCLETVEGEKQQEHEVQWLREHLAMLLSSVLEAKPLLGDQSHAGSELLQRCESLEKKTATFENIVCVLNREVERVAMTAEACSRQHRLDQDKIEALSSKVQQLERSIGLKDLAMADLEQKVLEMEASTYDGVFIWKISDFARKRQEAVAGRIPAIFSPAFYTSRYGYKMCLRIYLNGDGTGRGTHLSLFFVVMKGPNDALLRWPFNQKVTLMLLDQNNREHVIDAFRPDVTSSSFQRPVNDMNIASGCPLFCPVSKMEAKNSYVRDDAIFIKAIVDLTGL
B2: Putative pre-mRNA-splicing factor ATP-dependent RNA helicase DHX32 (Homo sapiens), Q7L7V1 (parent)
chain: MEEEGLECPNSSSEKRYFPESLDSSDGDEEEVLACEDLELNPFDGLPYSSRYYKLLKEREDLPIWKEKYSFMENLLQNQIVIVSGDAKCGKSAQVPQWCAEYCLSIHYQHGGVICTQVHKQTVVQLALRVADEMDVNIGHEVGYVIPFENCCTNETILRYCTDDMLQREMMSNPFLGSYGVIILDDIHERSIATDVLLGLLKDVLLARPELKLIINSSPHLISKLNSYYGNVPVIEVKNKHPVEVVYLSEAQKDSFESILRLIFEIHHSGEKGDIVVFLACEQDIEKVCETVYQGSNLNPDLGELVVVPLYPKEKCSLFKPLDETEKRCQVYQRRVVLTTSSGEFLIWSNSVRFVIDVGVERRKVYNPRIRANSLVMQPISQSQAEIRKQILGSSSSGKFFCLYTEEFASKDMTPLKPAEMQEANLTSMVLFMKRIDIAGLGHCDFMNRPAPESLMQALEDLDYLAALDNDGNLSEFGIIMSEFPLDPQLSKSILASCEFDCVDEVLTIAAMVTAPNCFSHVPHGAEEAALTCWKTFLHPEGDHFTLISIYKAYQDTTLNSSSEYCVEKWCRDYFLNCSALRMADVIRAELLEIIKRIELPYAEPAFGSKENTLNIKKALLSGYFMQIARDVDGSGNYLMLTHKQVAQLHPLSGYSITKKMPEWVLFHKFSISENNYIRITSEISPELFMQLVPQYYFSNLPPSESKDILQQVVDHLSPVSTMNKEQQMCETCPETEQRCTLQ
partner: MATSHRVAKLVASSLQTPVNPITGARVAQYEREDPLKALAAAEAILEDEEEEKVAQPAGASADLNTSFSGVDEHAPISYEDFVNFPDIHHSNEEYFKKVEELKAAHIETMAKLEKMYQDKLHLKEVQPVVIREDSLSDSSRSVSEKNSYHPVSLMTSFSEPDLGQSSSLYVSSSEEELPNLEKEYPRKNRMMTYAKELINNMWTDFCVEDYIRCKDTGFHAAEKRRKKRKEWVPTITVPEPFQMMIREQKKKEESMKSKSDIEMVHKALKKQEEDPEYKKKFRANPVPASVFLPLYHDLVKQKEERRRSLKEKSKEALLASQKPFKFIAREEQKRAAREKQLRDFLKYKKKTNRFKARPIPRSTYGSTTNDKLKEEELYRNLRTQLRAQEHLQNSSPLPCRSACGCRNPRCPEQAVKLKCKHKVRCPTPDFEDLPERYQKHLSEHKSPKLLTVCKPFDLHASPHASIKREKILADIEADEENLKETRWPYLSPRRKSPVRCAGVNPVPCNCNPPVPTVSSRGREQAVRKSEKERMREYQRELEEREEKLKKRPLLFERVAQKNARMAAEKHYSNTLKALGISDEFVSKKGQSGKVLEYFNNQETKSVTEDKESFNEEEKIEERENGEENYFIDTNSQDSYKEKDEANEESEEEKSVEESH
B3: Ras-related protein Rab-4A (Homo sapiens), P20338 (parent)
chain: MSQTAMSETYDFLFKFLVIGNAGTGKSCLLHQFIEKKFKDDSNHTIGVEFGSKIINVGGKYVKLQIWDTAGQERFRSVTRSYYRGAAGALLVYDITSRETYNALTNWLTDARMLASQNIVIILCGNKKDLDADREVTFLEASRFAQENELMFLETSALTGENVEEAFVQCARKILNKIESGELDPERMGSGIQYGDAALRQLRSPRRAQAPNAQECGC
partner: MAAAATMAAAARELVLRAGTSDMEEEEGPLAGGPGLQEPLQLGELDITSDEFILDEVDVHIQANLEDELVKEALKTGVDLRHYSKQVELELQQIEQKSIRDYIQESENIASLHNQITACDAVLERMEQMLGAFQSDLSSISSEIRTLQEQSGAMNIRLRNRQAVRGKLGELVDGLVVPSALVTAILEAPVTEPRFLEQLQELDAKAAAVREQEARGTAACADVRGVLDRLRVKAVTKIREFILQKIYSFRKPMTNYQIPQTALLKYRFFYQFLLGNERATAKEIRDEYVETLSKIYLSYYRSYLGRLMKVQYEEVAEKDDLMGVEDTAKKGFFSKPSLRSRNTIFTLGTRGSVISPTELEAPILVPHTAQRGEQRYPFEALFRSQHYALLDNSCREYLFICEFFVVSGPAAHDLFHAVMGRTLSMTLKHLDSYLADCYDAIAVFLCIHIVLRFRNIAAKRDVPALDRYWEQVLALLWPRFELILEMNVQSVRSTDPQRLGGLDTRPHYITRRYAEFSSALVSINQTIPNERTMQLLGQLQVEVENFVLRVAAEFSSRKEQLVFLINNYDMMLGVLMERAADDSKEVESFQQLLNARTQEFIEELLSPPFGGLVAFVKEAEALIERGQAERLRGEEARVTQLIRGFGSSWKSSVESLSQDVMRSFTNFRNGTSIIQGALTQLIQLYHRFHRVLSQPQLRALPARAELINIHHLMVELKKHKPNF
B4: Four and a half LIM domains protein 2 (Homo sapiens), Q14192 (parent)
chain: MTERFDCHHCNESLFGKKYILREESPYCVVCFETLFANTCEECGKPIGCDCKDLSYKDRHWHEACFHCSQCRNSLVDKPFAAKEDQLLCTDCYSNEYSSKCQECKKTIMPGTRKMEYKGSSWHETCFICHRCQQPIGTKSFIPKDNQNFCVPCYEKQHAMQCVQCKKPITTGGVTYREQPWHKECFVCTACRKQLSGQRFTARDDFAYCLNCFCDLYAKKCAGCTNPISGLGGTKYISFEERQWHNDCFNCKKCSLSLVGRGFLTERDDILCPDCGKDI
partner: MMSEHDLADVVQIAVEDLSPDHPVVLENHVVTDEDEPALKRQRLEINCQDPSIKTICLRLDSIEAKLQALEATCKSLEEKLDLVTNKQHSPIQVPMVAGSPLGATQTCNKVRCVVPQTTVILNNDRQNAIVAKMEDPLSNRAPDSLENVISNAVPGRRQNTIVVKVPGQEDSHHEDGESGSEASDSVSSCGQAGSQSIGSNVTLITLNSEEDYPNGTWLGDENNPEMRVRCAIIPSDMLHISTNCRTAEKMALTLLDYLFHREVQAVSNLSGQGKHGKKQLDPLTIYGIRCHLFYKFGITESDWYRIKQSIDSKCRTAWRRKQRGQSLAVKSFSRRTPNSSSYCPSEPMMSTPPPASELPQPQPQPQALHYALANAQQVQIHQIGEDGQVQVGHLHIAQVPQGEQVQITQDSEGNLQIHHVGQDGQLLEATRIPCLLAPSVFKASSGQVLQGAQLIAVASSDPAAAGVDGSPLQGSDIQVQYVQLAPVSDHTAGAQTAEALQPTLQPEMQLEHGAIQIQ
B5: Transmembrane protein 79 (Homo sapiens), Q9BSE2 (parent)
chain: MTEQETLALLEVKRSDSPEKSSPQALVPNGRQPEGEGGAESPGAESLRVGSSAGSPTAIEGAEDGLDSTVSEAATLPWGTGPQPSAPFPDPPGWRDIEPEPPESEPLTKLEELPEDDANLLPEKAARAFVPIDLQCIERQPQEDLIVRCEAGEGECRTFMPPRVTHPDPTERKWAEAVVRPPGCSCGGCGSCGDREWLRAVASVGAALILFPCLLYGAYAFLPFDVPRLPTMSSRLIYTLRCGVFATFPIVLGILVYGLSLLCFSALRPFGEPRREVEIHRRYVAQSVQLFILYFFNLAVLSTYLPQDTLKLLPLLTGLFAVSRLIYWLTFAVGRSFRGFGYGLTFLPLLSMLMWNLYYMFVVEPERMLTATESRLDYPDHARSASDYRPRPWG
partner: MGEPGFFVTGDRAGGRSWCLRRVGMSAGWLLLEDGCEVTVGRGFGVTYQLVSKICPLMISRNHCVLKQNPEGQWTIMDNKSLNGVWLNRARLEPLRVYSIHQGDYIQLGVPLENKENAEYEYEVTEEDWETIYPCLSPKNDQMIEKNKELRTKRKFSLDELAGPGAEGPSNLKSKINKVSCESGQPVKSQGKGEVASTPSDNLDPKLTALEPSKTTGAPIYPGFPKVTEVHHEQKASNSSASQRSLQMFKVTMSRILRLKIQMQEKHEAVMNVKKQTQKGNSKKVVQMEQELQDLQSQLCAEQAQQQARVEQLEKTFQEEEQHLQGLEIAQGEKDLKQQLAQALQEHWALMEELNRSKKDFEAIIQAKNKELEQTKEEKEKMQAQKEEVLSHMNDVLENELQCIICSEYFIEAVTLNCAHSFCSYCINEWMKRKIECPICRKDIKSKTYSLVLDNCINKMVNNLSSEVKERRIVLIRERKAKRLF

The variants in the first test derive from B1. To be noted: with traf1_human TRAF1, Q13077.
Sequence of traf1_human TRAF1, Q13077 (Q13077 whole entry): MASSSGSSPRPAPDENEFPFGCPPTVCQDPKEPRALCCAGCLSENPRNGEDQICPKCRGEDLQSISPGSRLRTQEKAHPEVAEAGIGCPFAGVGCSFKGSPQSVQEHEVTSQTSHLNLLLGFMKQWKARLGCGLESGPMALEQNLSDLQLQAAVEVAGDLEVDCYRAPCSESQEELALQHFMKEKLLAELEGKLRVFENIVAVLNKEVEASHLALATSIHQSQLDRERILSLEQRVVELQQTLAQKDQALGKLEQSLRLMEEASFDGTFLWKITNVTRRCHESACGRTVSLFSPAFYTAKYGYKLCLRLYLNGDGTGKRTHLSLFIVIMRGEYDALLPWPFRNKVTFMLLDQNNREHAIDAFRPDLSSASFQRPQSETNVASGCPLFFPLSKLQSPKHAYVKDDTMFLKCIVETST
As to T134A, the “effect of a mutation on the interaction” value is “with no effect”.

Regarding D488N, the “effect of a mutation on the interaction” value is on record as “with no effect”. On the same count and under the same terms, to D462N belongs “with no effect”; to E276Q, “with no effect”; to V206I, “with no effect”.

V475I: the “effect of a mutation on the interaction” value is recorded as “with no effect”.

Another test covers variants of B2. To be noted: with FAM161A.
As to D301A, the “effect of a mutation on the interaction” value is given as “with no effect”.

In another test the parent is B3. To be noted: with vps52_human VPS52, Q8N1B4.
On to R207H, for which the “effect of a mutation on the interaction” value is on record as “with no effect”.

In a further test the parent is B4. To be noted: with banp_human BANP.
Take R177Q: the “effect of a mutation on the interaction” value is on record as “with no effect”.

Variants of B5 are the subject of the next test. To be noted: with rnf8_human RNF8, O76064.
Regarding D144G, the “effect of a mutation on the interaction” value is reported as “with no effect”. Still for that read-out and setting: to V147M belongs “with no effect”; to S104T, “with no effect”.

The values are drawn from IntAct's records for PubMed 31515488.
